Here are results for 18 sequences from the DeepSol protein solubility set.

A short description of the series: soluble on expression in E. coli; label from the status in PepcDB or PDB records.
As to “MESRESSKDRLLILPSMGESYTEYVDSYLNLELLERGERETPIFLESLTRQLTQKIYELIKTKSLTADTLQQISDKYDGVVAENKLLFLQRQYYVDDEGNVRDGRNNDKIYCEPKHVYDMVMATHLMNKHLRGKTLHSFLFSHFANISHAIIDWVQQFCSKCNKKGKIKPLKEYKR”, the “soluble on expression in E. coli” value is on record as “soluble”.
Take “MAHHHHHHHRSEQIAAVRRMVEAYNTGKTDDVADYIHPEYMNPGTLEFTSLRGPELFAINVAWVKKTFSEEARLEEVGIEERADWVRARLVLYGRHVGEMVGMAPTGRLFSGEQIHLLHFVDGKIHHHRDWPDYQGTYRQLGEPWPETEHRRP”: the “soluble on expression in E. coli” value is listed as “soluble”.
Take “GLTYDLNGNISTYRNEILELPETVAANGKFGGNGVKSVVGHTYGAQVGYIADGIFKSQDEVDNHATQEGAAVGRIRYRDIDHNGVIDERDQNWIYDPTPSFSYGLNIYLEYKNFDLTMFWQGVQGVDIISDVKKKSDFWSASNVGFLNKGTRLLNAWSPTNPNSDIPALTRSDTNNEQRVSTYFVENGSFLKLRNIQLGYTVPAVISKKMRMDRLRFYCSAQNLLTIKSKNFTGEDPENPNFSYPIPVNITFGLNIGF”: the “soluble on expression in E. coli” value is “not soluble”.
On to “SEDNQRSRFRKICVFCGSHSGHREVFSDAAIELGNELVKRKIDLVYGGGSVGLMGLISRRVYEGGLHVLGIIPKALMPIEISGETVGDVRVVADMHERKAAMAQEAEAFIALPGGYGTMEELLEMITWSQLGIHKKTVGLLNVDGYYNNLLALFDTGVEEGFIKPGARNIVVSAPTAKELMEKMEEYTPSHMHVASHESWKVEELGDYPGQENKPQ”, for which the “soluble on expression in E. coli” value is “soluble”.
For “SLPPLNSLISQFEGRVYDQIINFNWHSKPENLKVIIIDIDEKSLEQEGRWPWPRSKIAELLNKLQENGVVTVGFDIVMSEAETNYALGLIEKLSQFSGKMTTDQKQLIATLNSVANQVDNDQTLVNALGKNNAILGFFFHNSEGIRKGSLPPPLRDTDSNPLLASKLSVYQFTNFNGNLAAFTAAATSGGFVTNLPDKDGVVRHALLLANYKNNLYPSLSLAIAMNYLLTDKVNLKKYNNELTGIELDGLQIPTNRKGQILIPFWGGPGTLNYYSATDILNNQFNPDELAGSIALVGSSITLLSDLHHTPVAQLFPGVEIVGNIVKGLVEQKIPREFDWESLQG”, the “soluble on expression in E. coli” value was “not soluble”.
Then “MQYPINEMFQTLQGEGYFTGVPAIFIRLQGCPVGCAWCDTKHTWDKLSDREVSLFSILAKTKESDKWGAASSEDLLAVINRQGYTARHVVITGGEPCIHDLMPLTDLLEKSGFSCQIETSGTHEVRCTPNTWVTVSPKVNMRGGYDVLSQALERANEIKHPVGRVRDIEALDELLATLSDDKPRVIALQPISQKEDATRLCIETCIARNWRLSMQTHKYLNIA”, with “not soluble”; and “MTYTLAILGCGVMGQALLSAIYNAPKAADETAAAFYPSKIITCNHDEPSAQQVTDLVETFDESPNGIKVESTYGHNVSAVEEASVVLLGTKPFLAEEVLNGVKSVIGGKLLISLAAGWTIDQLSQYTSTVCRVMTNTPAKYGYGCAVVSYSADVSKEQKPLVNELISQVGKYVELPEKNMDAATALVGSGPAFVLLMLESLMESGLKLGIPLQESKECAMKVLEGTVKMVEKSGAHPSVLKHQVCTPGGTTIAGLCVMEEKGVKSGIINGVEEAARVASQLGQKKK”, with “soluble”.
Turning to “MGSDKIHHHHHHENLYFQGMWKSISQVLAEQFGAYYFIKHKEKLYSGEMNEIWLINDEVQTVFVKINERSYRSMFRAEADQLALLAKTNSINVPLVYGIGNSQGHSFLLLEALNKSKNKQSSFTIFAEKIAQLHQIQGPDKYGLDFDTWLGPIYQPNDWQTSWAKFFSENRIGWQLQICKEKGLIFGNIDLIVQIVADTLSKHNPKPSILHGNLWIENCIQVDDKIFVCNPACYWGDRECDIAFSSLFEPFPTNFYQRYNEIYPLEEGYLERKLIYQLYYLLNFSYRYYNKKQSYVSLTQKLINQILHKIDK”, the “soluble on expression in E. coli” value is given as “soluble”.
In the case of “SDAILNYRPEGSEDYYALLGCDELSSVEQILAEFKIRALECHPDKHPENSKAVETFQKLQKAKEILCNAESRARYDHWRRSQMSMPFEQWEALADSVKTSMHWAVRSKKDLMLEGSGQTFTSSVPNKERSEQRETKKGDPDSNPEKMKQKEPKFPEEGISPQNPDSPGLSDLNCGHLRFRWSGDAPSELLRKFRNYEI” it was “soluble”; in that of “MAHHHHHHMFAIRCPASMLWHPSVHHSLLLLRALEQPHTLLLDTHTASRGRLSVPLLSECAREVRIQTPPGHHEFDSPAGASTERSVLLYRAEDLLHIVNRPLSAGHDLGAACPTQSGVFASLLEYLEASTVSSHVISAIDALLVSLNTGDMETMRQTHACLVELIERLEASITDESLSEAHRTDQKEPLSTWPLFCTLQFLIEEGGMLTSAFPRTNKAYTRLCHSSKAVALHRRLVQRTVEQLLDVGSSANADVSQGARVEMNYPAKGFLREVQRHLASYNRSMEERTTDGVSGEKGPLNSRASGGRLGIQAVQARLPWTLQARPLRKG”, “soluble”; in that of “MMAQEISNLVKKYNVTWQQTMLRIYDPKETVEFYEKNFGMINIHTYHFNEYNFSLYFLITPPYDEEERKKLPEPNTKESEKYLWNLNTVCLELTYNHNSQEKLSNGNNENDRGFGHIAFNCNDVIEQCDNLFKKNVKFHKLPHETKMKTIGFALDPNNYWIEIVKRSNQVKWKNYKNITNFSQTMIRVKNPEKSLYFYIHILGMKLIHVKHCSDFSLYFLKSNYACAENNKEMIEDQSNKNTNEIYDFNSLKNSYQTDEDYENFKQSWEPVLELTHNHGTEDDDNFSYHNGNTEPRGFGHIGFLVNDLENYCKELETLNVTFKKKVTEGLMKNIAFIYDPDNYVIELIQRDTSFIAK”, “not soluble”.
In the case of “MHHHHHHSSGVDLGTENLYFQSMSVGFIGAGQLAFALAKGFTAAGVLAAHKIMASSPDMDLATVSALRKMGVKLTPHNKETVQHSDVLFLAVKPHIIPFILDEIGADIEDRHIVVSCAAGVTISSIEKKLSAFRPAPRVIRCMTNTPVVVREGATVYATGTHAQVEDGRLMEQLLSSVGFCTEVEEDLIDAVTGLSGSGPAYAFTALDALADGGVKMGLPRRLAVRLGAQALLGAAKMLLHSEQHPGQLKDNVSSPGGATIHALHVLESGGFRSLLINAVEASCIRTRELQSMADQEQVSPAAIKKTILDKVKLDSPAGTAL”, the “soluble on expression in E. coli” value is recorded as “soluble”.
Then “MDADEGQDMSQVSGKESPPVSDTPDEGDEPMPIPEDLSTTSGGQQSSKSDRVVASNVKVETQSDEENGRACEMNGEECAEDLRMLDASGEKMNGSHRDQGSSALSGVGGIRLPNGKLKCDICGIICIGPNVLMVHKRSHTGERPFQCNQCGASFTQKGNLLRHIKLHSGEKPFKCHLCNYACRRRDALTGHLRTHSVIKEETNHSEMAEDLCKIGSERSLVLDRLASNVAKRKSSMPQKFLGDKGLSDTPYDSSASYEKENEMMKSHVMDQAINNAINYLGAESLRPLVQTPPGGSEVVPVISPMYQLHKPLAEGTPRSNHSAQDSAVENLLLLSKAKLVPSEREASPSNSCQDSTDTESNNEEQRSGLIYLTNHIAPHARNGLSLKEEHRAYDLLRAASENSQDALRVVSTSGEQMKVYKCEHCRVLFLDHVMYTIHMGCHGFRDPFECNMCGYHSQDRYEFSSHITRGEHRFHMS”, with “not soluble”; and “MSFDGFFLHHMTAELREQVLYGRIQKVNQPFERELVLTIRNNRQNYKLLLSAHPVFGRIQTTKAELPNPQNPNTYTMIMRKYLQGAVIEDIQQLENDRVLEISVSNKNEIGDSVKVTLVMEIMGKHSNIILIDKNENKIIESIKHVGFSQNSYRTILPGSTYIAPPKTDARNPFDISDENLFELLQTEDLSAKNLQKLFQGLGRDTANELSALLETDKLKNFRDFFNREVEPNLTTKAFSAVRFSDSQDQPEFETLSELLDYYYLDKAARDRVAQQASDLIHRVQNELEKNKKKLVKQEKELAATENAEEFRQKGELLTTFLSMVPNDKDSVELDNYYTGEKITIPLNVALTPNQNAQRYFKKYQKLKEAVKHLTGLIEETKQTINYLESVEFSLSQANMDEIEDIREELVQAGFMRRRSTDKRQKRKK”, with “not soluble”.
Turning to “MSFKEIKAEDLQFNPFTRIGSDWMLITAGDEKKFNTMTASWGGAGVFWGKNVVTCYIRPQRYTKEFVDANDTFTLSFYGPECKNALNLCGTVSGRDRDKISEAGLTPYFTEGTAAFEEANLIFVCRKIYQDDMPYENFIAKENDAKYYPNKDYHTMYIAEIVKILVAE”, the “soluble on expression in E. coli” value is listed as “not soluble”.
In the case of “MLEEYRKHVAERAAEGIAPKPLDANQMAALVELLKNPPAGEEEFLLDLLTNRVPPGVDEAAYVKAGFLAAIAKGEAKSPLLTPEKAIELLGTMQGGYNIHPLIDALDDAKLAPIAAKALSHTLLMFDNFYDVEEKAKAGNEYAKQVMQSWADAEWFLNRPALAEKLTVTVFKVTGETNTDDLSPAPDAWSRPDIPLHALAMLKNAREGIEPDQPGVVGPIKQIEALQQKGFPLAYVGDVVGTGSSRKSATNSVLWFMGDDIPHVPNKRGGGLCLGGKIAPIFFNTMEDAGALPIEVDVSNLNMGDVIDVYPYKGEVRNHETGELLATFELKTDVLIDEVRAGGRIPLIIGRGLTTKAREALGLPHSDVFRQAKDVAESDRGFSLAQKMVGRACGVKGIRPGAYCEPKMTSVGSQDTTGPMTRDELKDLACLGFSADLVMQSFCHTAAYPKPVDVNTHHTLPDFIMNRGGVSLRPGDGVIHSWLNRMLLPDTVGTGGDSHTRFPIGISFPAGSGLVAFAAATGVMPLDMPESVLVRFKGKMQPGITLRDLVHAIPLYAIKQGLLTVEKKGKKNIFSGRILEIEGLPDLKVEQAFELTDASAERSAAGCTIKLNKEPIIEYLNSNIVLLKWMIAEGYGDRRTLERRIQGMEKWLANPELLEADADAEYAAVIDIDLADIKEPILCAPNDPDDARPLSAVQGEKIDEVFIGSCMTNIGHFRAAGKLLDAHKGQLPTRLWVAPPTRMDAAQLTEEGYYSVFGKSGARIEIPGCSLCMGNQARVADGATVVSTSTRNFPNRLGTGANVFLASAELAAVAALIGKLPTPEEYQTYVAQVDKTAVDTYRYLNFNQLSQYTEKADGVIFQTAV” it was “soluble”; in that of “MGFDSPRGRGGGGFRGGRGGGSGFTPRGGGGGFRGGDRGRSPGGFRGGDRGRSSSGFRGGDRGRSPGGFRGDREGGFSPRGRGGGFRGGDRGGFRGGDRGGSPWRGGDRGNFRGGDRGGSPWRGGDRGVANRGRGDFSGGSRGGNKFSPRGGGRGGFTPRGRGGNDFSPRGGRGNFQSRGGGSRVGFSDKRKQYDSDGDDDEEEEVPKKKLATGTPFAKQTKPVEDDSGEDEEDEEESDEEPQPPKKTAKSAIATAAEDSDDDEEDDDEEEEESDDDAPQVKKSVAVEEDEEDEEDEEEIEMDEEDEEEEEDEEETEPVAKTPAVKSSLKSVDSTKGKQVNLSKVATPTTVDKKAPATPHPAKTSKNAAGDVPKLNFDDDSDEEDEEDEEVEEEDEEEEEEEEDVPAKKAPVLKQSLSQIAQAIEEDSDDEDEDEEEEEDEEDEEEEEDTTNVPLIKSKADLLKQIAANRAAASAAQDSDEDEDEEDEEDVEEEDEEEEEEEDIPAVKPKVTEKQGGVKRKLDEPTVASKQVKSDGKSIISEEERRRQDRDSRSLFIKEIAKKAKDAEITGLVTGLDSFRRKKNSNFGWLVFNTVADCKKAHDVLSKSKIQGKALYVDFCLSESKAPKEHGVRPINPLQLFINALPGTCNNTDLKNIFRSSTDIKILHASGQPNSKKRAFITFGTVEDAQAAFAKSNGLKVNNHLVDVFYARHQETKVDVKPKKAATPAVQKKIVPKVAADSSGDDSEEVASSDEGIQEVEEEQPKQKKLVKKVEPKTIPRVQQKKPQFKKTGFKGKK”, “not soluble”; in that of “GPGSMGRERMASSWRMPVYRSWQCSTPWSVSLPHPGPALPTLLVRHVCTPVSVCLYTNLSYCSLHAHNSIERLPPPLHAFVPTTHTHTHKHTYICIYACHSPLLRVSTWTKAFCLILRSRTLSTMSTKYLAAYALASLSKASPSQADVEAICKAVHIDVDQATLAFVMESVTGRDVATLIAEGAAKMSAMPAASSGAAAGVTASAAGDAAPAAAAAKKDEPEEEADDDMGFGLFD”, “not soluble”.
